# Test results reported in patent publication US20230295345A1 (published 2023).
# T1: TMPRSS6 expressed in transfected HepG2 cells (HAMP-luciferase reporter assay) (UniProt Q8IU80 1-811, limits assumed)
# T1 sequence (looked up): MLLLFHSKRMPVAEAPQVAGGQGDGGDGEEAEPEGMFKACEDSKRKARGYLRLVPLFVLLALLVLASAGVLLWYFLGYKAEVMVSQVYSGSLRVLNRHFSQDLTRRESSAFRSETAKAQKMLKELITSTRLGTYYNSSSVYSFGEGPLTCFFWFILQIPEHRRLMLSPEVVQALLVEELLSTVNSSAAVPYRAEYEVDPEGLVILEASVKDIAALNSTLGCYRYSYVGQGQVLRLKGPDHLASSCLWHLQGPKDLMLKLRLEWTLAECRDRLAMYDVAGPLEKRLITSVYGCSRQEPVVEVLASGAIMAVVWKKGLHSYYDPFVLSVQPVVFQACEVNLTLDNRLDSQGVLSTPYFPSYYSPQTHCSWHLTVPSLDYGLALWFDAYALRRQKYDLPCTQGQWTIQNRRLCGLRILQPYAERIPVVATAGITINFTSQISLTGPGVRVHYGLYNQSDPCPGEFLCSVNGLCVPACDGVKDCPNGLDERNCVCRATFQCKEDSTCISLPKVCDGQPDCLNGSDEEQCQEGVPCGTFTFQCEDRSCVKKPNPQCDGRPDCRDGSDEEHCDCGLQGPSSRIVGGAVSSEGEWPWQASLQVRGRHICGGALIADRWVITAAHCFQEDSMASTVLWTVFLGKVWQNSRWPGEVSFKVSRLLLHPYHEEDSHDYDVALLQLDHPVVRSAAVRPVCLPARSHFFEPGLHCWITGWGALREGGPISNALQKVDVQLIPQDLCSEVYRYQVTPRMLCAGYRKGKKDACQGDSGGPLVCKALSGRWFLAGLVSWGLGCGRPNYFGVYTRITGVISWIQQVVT
# T2: matriptase-3 (TMPRSS7) over-expressed in HEK293T cells (human, UniProt Q7RTY8 1-843)
# T2 sequence: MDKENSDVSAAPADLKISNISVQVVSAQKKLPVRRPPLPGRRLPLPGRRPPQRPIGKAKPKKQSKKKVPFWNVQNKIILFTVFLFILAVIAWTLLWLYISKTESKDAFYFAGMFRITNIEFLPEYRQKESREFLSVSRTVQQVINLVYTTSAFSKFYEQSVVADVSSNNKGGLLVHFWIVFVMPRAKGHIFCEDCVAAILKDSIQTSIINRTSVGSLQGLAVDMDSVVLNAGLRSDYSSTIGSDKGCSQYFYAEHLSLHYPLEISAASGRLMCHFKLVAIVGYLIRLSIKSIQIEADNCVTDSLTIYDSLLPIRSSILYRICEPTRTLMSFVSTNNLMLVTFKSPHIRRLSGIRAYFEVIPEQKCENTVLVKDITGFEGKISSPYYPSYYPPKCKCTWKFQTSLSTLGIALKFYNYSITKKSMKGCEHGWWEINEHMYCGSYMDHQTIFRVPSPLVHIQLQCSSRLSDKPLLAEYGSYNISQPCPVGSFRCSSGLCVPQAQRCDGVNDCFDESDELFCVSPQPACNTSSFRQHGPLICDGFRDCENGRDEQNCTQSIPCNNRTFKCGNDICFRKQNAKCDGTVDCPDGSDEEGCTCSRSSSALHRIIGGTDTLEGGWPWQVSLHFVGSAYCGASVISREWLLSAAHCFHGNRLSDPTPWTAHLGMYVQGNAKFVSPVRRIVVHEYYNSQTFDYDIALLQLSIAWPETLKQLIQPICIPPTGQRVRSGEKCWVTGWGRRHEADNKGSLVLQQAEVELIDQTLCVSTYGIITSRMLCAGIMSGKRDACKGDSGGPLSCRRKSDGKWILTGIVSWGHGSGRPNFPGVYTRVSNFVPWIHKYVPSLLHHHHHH
# What was measured:
# [1] = target: T1, TMPRSS6 expressed in transfected HepG2 …; test: cell-based or functional assay
# [2] = target: T2, matriptase-3 (TMPRSS7) over-expressed …; test: FACS on permeabilized HEK293T cells over-expressing TMPRSS7
# From the text: To determine if anti-TMPRSS6 antibodies bind to homologous matriptases, HEK293T cells over-expressing matriptase (ST14) (SEQ ID NO: 100) (FIGS. 5B, 5E, 5H, 5K, 5N, 5Q), and HEK293T cells over-expressing matriptase-3 (TMPRSS7) (SEQ ID NO: 101) (FIGS. 5C, 5F, 5I, 5L, 5O, 5R) were collected (generated in house). HEK293T cells stably expressing human TMPRSS6 (matriptase-2) (SEQ ID NO:97) (generated by LakePharma Inc as described above, FIGS. 5A, 5D, 5G, 5J, 5M, 5P) were used as a positive control and HEK293T cells (FIGS. 5A-5R) were used as a negative control (as described above). Cells were blocked and permeabilized with dPBS + 3% BSA + 0.1% Tween-20 before incubation with various anti-TMPRSS6 antibodies diluted in dPBS + 3% BSA + 0.1% Tween-20. Cells were incubated with anti-TMPRSS6 antibodies and their humanized variants at a concentration of roughly 1 µg/ml for 1 hr. After incubation, cells were washed with dPBS and incubated with goat anti-mouse IgG conjugated with AlexaFluor-488 (Invitrogen, FIGS. 5A-5I) or goat anti-human IgG conjugated with Allophycocyanin (APC) (Jackson Immuno Research, FIGS. 5J-5R) as a 2° antibody. At last, cells were washed with dPBS and re-suspended with dPBS + 1 mM EDTA, and then subjected to FACS analysis using a NOVOCYTE® Flow Cytometer. Bound antibody was determined by excitation at 488 nm and measurement of emission (FITC-A) at 530 nm (FIGS. 5A-5I) or by excitation at 640 nm and measurement of emission (APC-A) at 675 nm (FIGS. 5J-5R). Results for these assays are shown in histogram plots in FIGS. 5A-5R.
Binder,"EC50, HAMP promoter activity (HAMP-luciferase reporter assay in HepG2 cells) [1] [µg/mL]",binding result [2]
"MWTx-001 anti-TMPRSS6 antibody (antibody, mouse IgG2a, kappa, V domains shown, Mouse monoclonal antibody from a hybridoma (ATCC PTA-126759)) VH: QVQLQQPGAELAKPGASVKMSCKASGYTFTSYWITWVKQRPGQDLEWIGNIYPGSGSTYYNEKFKSKATLTVDTSSRTAYMQLSSLTSADSAVYYCAPYDSDYAMDYWGQGTSVTVSS VL: DIKMTQSPSSMYASLGERVTITCKASQDINNYLSWFQQKPGKSPKTLIYRANRLVDGVPSRVSGSGSGQDYSLTISSLEYEDVGIYFCLQYDEFPLTFGAGTKLELKR",3,no binding (tested: roughly 1 µg/ml)
"MWTx-003 anti-TMPRSS6 antibody (antibody, mouse IgG2b, kappa, V domains shown, Mouse monoclonal antibody from a hybridoma (ATCC PTA-126761); also called r4K12B (recombinantly expressed version, same HC and LC)) VH: EVQLQQSGAELVKPGASVKLSCTASGFNIEDYYIHWVKERTEQGLEWIGRIDPEDGETTYAPQFQGKATIIPDTSSNTAYMQLSSLTSEDAAVYYCARSIYLDPMDYWGQGTSVTVSS VL: DIVMTQSHKFMSTSVGDRVSITCKASQDVTTAVAWYQQKPGQSPKILIYWATTRHTGVPDRFTGSISGTTYILTISSVQAEDLALYYCQQHYSTPYTFGGGTKLEIKR",2,no binding (tested: roughly 1 µg/ml)
"MWTx-002 anti-TMPRSS6 antibody (antibody, mouse IgG2b, kappa, V domains shown, Mouse monoclonal antibody from a hybridoma (ATCC PTA-126760)) VH: EVQLQQSGAELVKPGASVKLSCTASGFNIKDYYIHWVKERTEQGLEWFGRIDPEDGESEYAPKFQGKATLTADTSSNTAYLQLSSLTSEDTAVYYCTRGDSMMVTYFDYWGQGTTLTVSS VL: DIVMTQSHKFMSTSVGDRVSITCKASQDVSTAVAWYQQKPGQSPKLLIYWAFTRHTGVPDRFTSTGSGTDYALTISSVQAEDLALYYCQQHYRSPWTFGGGTKLEIKR",1,no binding (tested: roughly 1 µg/ml)
"hzMWTx-001Var anti-TMPRSS6 antibody (antibody, human IgG1, kappa, N297A, V domains shown, Humanized variant of MWTx-001, human IgG1/kappa) VH: EVQLVQSGAEVKKPGASVKVSCKASGYTFTSYWITWVRQAPGQRLEWIGNIYPGSGSTYYNEKFKSKATITRDTSSRTAYMELSSLRSEDTAVYYCAPYDADYAMDYWGQGTLVTVSS VL: DIQMTQSPSSLSASVGDRVTITCKASQDISNYLSWFQQKPGKAPKLLIYRANRLVEGVPSRFSGSGSGTDFTLTISSLQPEDFATYFCLQYDEFPLTFGGGTKVEIKR",0.8,no binding (tested: roughly 1 µg/ml)

# Next, values leading:
"EC50, HAMP promoter activity (HAMP-luciferase reporter assay in HepG2 cells) [1] [µg/mL]",binding result [2],Binder
0.3,no binding (tested: roughly 1 µg/ml),"hzMWTx-002Var anti-TMPRSS6 antibody (antibody, human IgG1, kappa, N297A, V domains shown, Humanized variant of MWTx-002, human IgG1/kappa) VH: EVQLVQSGAEVKKPGASVKVSCKASGFNIKDYYIHWVRQATGQGLEWMGRIDPEDAESEYAPKFQGRVTITADTSTDTAYMELSSLRSEDTAVYYCTRGDSMMVTYFDYWGQGTLVTVSS VL: DIQMTQSPSSLSASVGDRVTITCKASQDVSTAVAWYQQKPGKAPKLLIYWAFTRHTGVPSRFSGSGSGTDYALTISSLQPEDFATYYCQQHYRSPWTFGGGTKVEIKR"
0.3,no binding (tested: roughly 1 µg/ml),"hzMWTx-003Var anti-TMPRSS6 antibody (antibody, human IgG1, kappa, L234A L235A, V domains shown, Humanized variant of MWTx-003, human IgG1/kappa) VH: QVQLVQSGAEVKKPGASVKVSCKASGFNIEDYYMHWVRQAPGQRLEWMGRIDPEDAETTYSPKFQGRVTIIPDTSANTAYMELSSLRSEDTAVYYCARSIYLDPMDYWGQGTLVTVSS VL: DIQMTQSPKSLSASVGDRVTITCRASQDVTTALAWYQQKPGQSPKLLIYWATTRHSGVPSRFSGSGSGTDFTLTISSLQPEDFATYYCQQHYSTPYTFGQGTKLEIKR"
